Values of other authors in article PMC12071684.

Biological target: von Willebrand factor (Homo sapiens) (UniProt P04275)

Question: With ADAMTS13 (from UniProt Q76LX8) as the substance, how does the Kd read?
Answer: 20 nM
